Experimental data reported in the DeepSol protein solubility set.

test: soluble on expression in E. coli; label from the status in PepcDB or PDB records

Q: With “MSDGQYGPISAGIIRSITDKSYERRKAAALDVEKLVRDLFNNNQLSQLDKCLSVLGELINSGNSNQRKGGLIGMAAASIALGNKNAPPYTAKLVEPIIPCFHDADLQIRYYACESLYNIAKICKTSVLAHFEDIFDVLWRVTADSDQNVRGGAELLNRLITEIVLSEQEFDIAILMSLIRDRIYTQTSSNRRFILEWLNTIDSAPFFSFCNYISEISDGLFKMLGEQAPAVRDLCETVLGNFLTAIRSKPESLSLEDRIQMINVLVVHTHENEPFLARKLSLIWLEEFVKLYKTDLLVMLSTCLVGILPSIVETELKADAVNRLLMALVGEAKLEQDILDKTIEVLLKYIKYDVVETRVTVLNWIRHLHSSMPGQLFVHMHQIFPVLLNTLSDTSDEVLLLDLFLISNICQSESAPDQVDVSTFGLNETELKQVSHISPFLIKFVLSLLEMFRTEPTLLRERGVLIIRQLCLLLEPAHIYRVICVLLERESKHNFAQEMVSTLHGVLLTATELFILRDELRALSNESSRSLFECIFRVWSNRPIALLGLCLLSQHYQQAADIALLLSQVDITVDVLLEIDKLVNLVESPVLAYVRMDLLSSIHRPPLCTVLSALLMLLPQSEAFVTLHKRLQAVPALVSIDNSPYAPKVPPCRIDFPPLMLHFKAALARRQTEVRSRHRDLLSGVVTQMKNVKI” as the sequence, how does the “soluble on expression in E. coli” value read?
A: not soluble

Q: With “MGSDKIHHHHHHMKEQILEKLKTVKYPGFEKDIVSFNFVKDIKIQDDGVFIDIEIVSANPEVANEIRKNTIEALSSLALKNIELNIITPKIPEEKSNSRSGKNIAPQVKNFIMVSSGKGGVGKSTTTVNLAISMAKMGKRVGILDADIYGPNIPRMLGETKTQPEVVGQRLKPILTHGVYMMSMGVLIEEGQGLMWRGAMIMKAIEQLLADVIWPELDVLFLDMPPGTGDAQITSAQSIPIAAGVCVSTPQTVSLDDSKRALDMFNKLHIPIAGVIENMSGFLCPDNGKEYDIFGKGTAEDMAKAYKSEVLAQIPIEMIVREGGDEGKPVSFYHPESVSSKRYLMAAEKIWSFIEKINNEGGADNSAIQPVMNGKSACSH” as the sequence, how does the “soluble on expression in E. coli” value read?
A: not soluble

Q: With “PHSMEPQVTLNVTFKNEIQSFLVSDPENTTWADIEAMVKVSFDLNTIQIKYLDEENEEVSINSQGEYEEALKMAVKQGNQLQMQVHEGHHVVDEAPPPVVGAKRLAARAGKKPLAHYSSLVRVLGSDMKTPEDPAVQSFPLVPCDTDQPQDKPPDWFTSYLETFREQVVNETVEKLEQKLHEKLVLQNPSLGSCPSEVSMPTSEETLFLPENQFSWHIACNNCQRRIVGVRYQCSLCPSYNICEDCEAGPYGHDTNHVLLKLRRPVVGSSEPFCHSKYSTPRLPAALEQVRLQKQVDKNFLKAEKQRLRAEKKQRKAEVKELKKQLKLHRKIHLWNSIHGLQSPKSPLGRPESLLQSNTLMLPLQPCTSVMPMLSAAFVDENLPDGTHLQPGTKFIKHWRMKNTGNVKWSADTKLKFMWGNLTLASTEKKDVLVPCLKAGHVGVVSVEFIAPALEGTYTSHWRLSHKGQQFGPRVWCSIIVDPFPSEESPDNIEKGMISSSKTDDLTCQQEETFLLAKEERQLGEVTEQTEGTAACIPQKAKNVASERELYIPSVDLLTAQDLLSFELLDINIVQELERVPHNTPVDVTPCMSPLPHDSPLIEKPGLGQIEEENEGAGFKALPDSMVSVKRKAENIASVEEAEEDLSGTQFVCETVIRSLTLDAAPDHNPPCRQKSLQMTFALPEGPLGNEKEEIIHIAEEEAVMEEEEDEEDEEEEDELKDEVQSQSSASSEDYIIILPECFDTSRPLGDSMYSSALSQPGLERGAEGKPGVEAGQEPAEAGERLPGGENQPQEHSISDILTTSQTLETVPLIPEVVELPPSLPRSSPCVHHHGSPGVDLPVTIPEVSSVPDQIRGEPRGSSGLVNSRQKSYDHSRHHHGSSIAGGLVKGALSVAASAYKALFAGPPVTAQPIISEDQTAALMAHLFEMGFCDRQLNLRLLKKHNYNILQVVTELLQLNNNDWYSQRY” as the sequence, how does the “soluble on expression in E. coli” value read?
A: soluble

Q: With “GPGSMSVKETTIALPLMVESVLDVDSGITATSAISVLDDRAVLIGTSEGSILLCAPVNESAHVLTPYSDTTLHCGAIYDLAVSSDHLVATAGHDAVSCVFPLHTFFRASGVRQCRRITGHTVPVVAVRFLSDGTSLVTLGADGRVLVAEVHSGHVLASLLCGFAATCLACSMDETQLFVGGRSLASIDLHHAMRPMSLQSVAAAASGPDPWASLSSAAAAPGAAASLRTPAWLRLYAWEEKSEATAGASRRQFRAPPHTFIRSLSVDSRDGALTATFARHAGGTSSVEVCGSARWAATGGRTASEATWAPQALQGVSAALRYPMSRDRSTGVATGKLRVRCRVKASARPSAKQTPAPPGSFASTAAALWNGRWYASPFELAGGTPRLTASHGLAETSVFTAEKSDQYGFPSAGPRTPAEELLIAQAQCDELQRECDALVFQIKSFLARKAPIR” as the sequence, how does the “soluble on expression in E. coli” value read?
A: not soluble

Q: For “MAISKLFFAYFHKNEKPFKMLCLPLLPLKNVINQMSFESVWRLSKTSRKMYEKIKNVKKSIYKIVIDNRFEYNIIYPRFKTRILRFEKKSDFVSVYNEMGTNKEITASVYLKFSVDFWIELFYKLDKRGPGKLRSSVYKLNHLKKRLKYLNRFDELFSIKHVDLVIDKYKLFGDSISHPLFQKCDYMEIVGNTSYISNNEMNFVLNNFKLKNGLLTNCLIAEDFDVTAMQQIPRLVIFNAQHITVEDLIKMDCETIKLCYHQFKPRHINQLLHHWLSGEMPKLRRFRLNFYCDTTWIGVVLSGIEHSKWDGQRRAKFFRDGIESIDCGNGFDIERNDGLLATFSSLEDSIDFVVWGNISAL”, which “soluble on expression in E. coli” value is on record?
A: not soluble

Q: Which “soluble on expression in E. coli” value does the source give for “MSIKPIDFQMMIPKTAEISKIQNDQQQKSVVVNEQQTNITRQKFEENVNTVHARENAEKVRIDSEQKKKKEERGRKKNPNRAKYGTKGEKEPEEQTSVIDIRL” here?
A: not soluble

Q: For “MAGDPMRTYENKEELKAEIEKTFEKYILEFDNIPENLKDKRADEVDRTPAENLAYQVGWTNLVLKWEEDERKGLQVKTPSDKFKWNQLGELYQWFTDTYAHLSLQELKAKLNENINSISAMIDSLSEEELFEPHMRKWADEATKTATWEVYKFIHVNTVAPFGTFRTKIRKWKKIVLLEHHHHHH”, which “soluble on expression in E. coli” value is on record?
A: soluble

Q: For “MGKTLYEKVYDAHVAVAAEGETPILYIDRHLVHEVTSPQAFDGLREKGRKVRQVSKTFATMDHNVSTTTKDINASGEMARIQMETLSKNCEEFGVTLYDLNHKYQGIVHVMGPELGITLPGMTIVCGDSHTATHGAFGSLAFGIGTSEVEHVLATQTLKQARAKT”, which “soluble on expression in E. coli” value is on record?
A: not soluble

Q: Which “soluble on expression in E. coli” value does the source give for “TNAVNIVMRQPTTPNFSSALNITSANEGGSAMQIRGVEKALGTLKITHENPSVDKEYDENAAALSIDIVKKQKGGKGTAAQGIYINSTSGTAGKMLRIRNKNKDKFYVGPDGDFWSCASSIVDGNLTVKDPTSGKHAATKDYVDEKIAELKKLILKK” here?
A: soluble

Q: For “MATSKLQAIWNHPAGPKTIHFWAPTFKWGISIANIADFAKPPEKLSYPQQIAVTCTGVIWSRYSMVINPKNWNLFSVNVAMAGTGIYQLARKIKHDYATEAEPAVASE”, which “soluble on expression in E. coli” value is on record?
A: soluble

Q: For “MGSDKIHHHHHHMIAGVPSVHPLPNMNHVEVKGVDLPAQIAQQVRKLINRGTLAPGLQLRQSDLADRFGISRVPVREALKLLAAEGIIEHDPNRGFFVAPLSTDEARQLYRYRFLLERELLKTVEWPDSTQMKALKAMLERLDSYLDSGQRAEWIDEYQDFYALLFDLSPDKILRREAIRLIRLTDRYRALASEVRVPGEQRTAHLEHTLLAAMSKRDRAQLIRGFEREREKILASMLARIDARGL”, which “soluble on expression in E. coli” value is on record?
A: not soluble

Q: Which “soluble on expression in E. coli” value does the source give for “MGSDKIHHHHHHMNIRILGCHGSQVPGCNTTSFLVEENVLIDAGSITSTLTAEEQVKVDYIFVTHAHLDHVKEMMFMVDNLWYLQKSNPLTIVSIEPVIHALKTHLFNGLIWPDFSSLPNAENPVLRYEILEVGGKRNIGSFAVTAISVNHTVETVSYVIETGQGSMIFIGDTGPTEEIWKVANSIEDLKAIFVETSLPDEMNHIAEMTGHLTPAMLMKELFKLNNKNLDIYLYHMKDFYSKLITRQVAAMNQNRLHILEDGQTVRI” here?
A: not soluble

Q: With “MVLSQRQRDELNRAIADYLRSNGYEEAYSVFKKEAELDMNEELDKKYAGLLEKKWTSVIRLQKKVMELESKLNEAKEEFTSGGPLGQKRDPKEWIPRPPEKYALSGHRSPVTRVIFHPVFSVMVSASEDATIKVWDYETGDFERTLKGHTDSVQDISFDHSGKLLASCSADMTIKLWDFQGFECIRTMHGHDHNVSSVSIMPNGDHIVSASRDKTIKMWEVQTGYCVKTFTGHREWVRMVRPNQDGTLIASCSNDQTVRVWVVATKECKAELREHRHVVECISWAPESSYSSISEATGSETKKSGKPGPFLLSGSRDKTIKMWDVSTGMCLMTLVGHDNWVRGVLFHSGGKFILSCADDKTLRVWDYKNKRCMKTLNAHEHFVTSLDFHKTAPYVVTGSVDQTVKVWECR” as the sequence, how does the “soluble on expression in E. coli” value read?
A: soluble

Q: For “MNLGQTLVGIATWPARAGLAAADTGLNMAGAAVDMAKQALGDAGGASGSTSMANMLGIDDTIARANRLARLLDDDMPLGRAIAPNGPMDRMLRPGGVVDLLTQPGGLLDRLTAEGGAMQRALQPGGLADQLLAEDGLIERVLSEDGLADRLLAEGGLIDKITAKDGPLEQLADVADTLARLTPGMEALEPAIATLQDAVIALTMVVNPLSSIAERIPLPGRRPARRSSSRSVRSQRVVDSE”, which “soluble on expression in E. coli” value is on record?
A: not soluble

Q: With “GPLGSQELRLRVQGKEKHQMLEISLSPDSPLKVLMSHYEEAMGLSGHKLSFFFDGTKLSGKELPADLGLESGDLIEVWG” as the sequence, how does the “soluble on expression in E. coli” value read?
A: soluble

Q: With “MAHHHHHHMIARDPPQEGRLPDPSRLPYDDERFAEMLLEMEVNGVIDETWQDAKKARMEDVKEIANILSSLKVRDLCCVDVSEKTSNFDYMMFGTCEGARHIHLAAWAVQDADKVHRISKIKRQQTDELWEVVPVGRIVVNLMVESFREEMTLERKWAVTRSMDPLAAANAPISEGRQVKAHGLWTLTLNLQDLEDFEVDYCKDILMRQM” as the sequence, how does the “soluble on expression in E. coli” value read?
A: soluble

Q: For “MDREQVVALQHQRFAAKKYDPNRRISQKDWEALVEVGRLAPSSIGLEPWKMLLLKNERMKEDLKPMAWGALFGLEGASHFVIYLARKGVTYDSDYVKKVMHEVKKRDYDTNSRFAQIIKNFQENDMKLNSERSLFDWASKQTYIQMANMMMAAAMLGIDSCPIEGYDQEKVEAYLEEKGYLNTAEFGVSVMACFGYRNQEITPKTRWKTEVIYEVIE”, which “soluble on expression in E. coli” value is on record?
A: soluble

Q: Which “soluble on expression in E. coli” value does the source give for “MSLENKIIFVAGACGRIGKALCEKILLSKGIPILADINKECLNKLQENLETNFKTKLLSLELDITKQESLQTALQKSQERYGKIDAFVNSSYPFGKDWGKTPYYELKYEQICESLNLHLAGFMLAAQEFVKFFKQQGYGNIINLSSIMGVYAPKFENYEGTSMQSSLEYSVIKAGINHMSSWLAKELFNQNIRVNTLASGGILDNQNELFLKAYRKCCASKGMLDADDICGTLVFLLSDESKFITGQTLVVDDGWGLEGHHHHHH” here?
A: soluble

Q: For “MAHHHHHHMEAPAVYCVSDAAASLTMADDWIRGLSRQRHRSMCEVDAVFPVSRTRERTEMDEAETASSYSDSVTSVPTNRLQLHMMHRRRLYKQYAMDLSMWADTHSYYQLMMWCHDHHVFVHPTVEMVRHRSAFREHVFEVKEDVDAFTPLLAIPEDLIIGFKDANTESSDPSASTDDRNNLYDAKREAEFHKLNTGENSNADICQFFFASLGMIVSDLITAKSSPLTDPRHLFAELLSKVPTLQNAPYFDEEVVFDSNETCLADVLLQMIRNYINGGPLVNKVPLHELRWAVSVSLSHSTPLSIGAVRSIGIVPVVHLFPHGGTATNAYVVARTSRDKSAEKMAIFFREKFGYDFQGQANAKWIYVVPERPLKAGEAINLQVMAPVCEKDSEAEQMWRLSCGTVPESYMSSAQASARQEAATRFIVEQGEALWKASRAKRLL”, which “soluble on expression in E. coli” value is on record?
A: not soluble

Q: Which “soluble on expression in E. coli” value does the source give for “MGSDKIHHHHHHMSASLILTLSCEDKPGIVARVTGNLFEAGGNIREAQQFDDPLSGRFFMRVVFDPAEGSVEHYRAAFAAVADHYAMEWNLRDTTVKRKVILMVSKFDHCLGDLLYRTRIGELPMDVVAILGNHPKEALNISLIGDIPYHHLPITKDTKPQQEAEVKRIVTETGAELVVLARYMQILSDDLAAFLSGRCINIHHSFLPSFKGAKPYHQAHARGVKMIGATGHYVTADLDEGPIIHQDVETVTHADSPDDLVRKGRDVERRVLAEAVRLHLEDRALVNGNKTVVFKS” here?
A: not soluble
